Holding throughout (assay): purified protein
Common to all, as to details: pH 8.0, 25 °C, 50 mM Tris-HCl, 1 mg/mL arabic gum, 0.05% Triton X-100, 10% isopropanol

The test system of series [1] is CCC(C)CCCCCCCCCCC(=O)Oc1ccc([N+](=O)[O-])cc1.
Series [2] deals with CCCCCCCC/C=C\CCCCCCCC(=O)Oc1ccc([N+](=O)[O-])cc1.
Series [3] concerns CCCC(=O)Oc1ccc([N+](=O)[O-])cc1.

In the case of “Geh (Sal2); Geh-6xHis (Staphylococcus aureus subsp. aureus NCTC 8325)”, the figures for the Km in series [1] and in series [2] were 74.1 µM and 160.5 µM, respectively.

Take “Sal1; Sal1-6xHis (Staphylococcus aureus subsp. aureus USA300)”: the Km in series [3] came out at 332.4 µM.
